Measured values reported in a protein production outcome set (Wang et al. 2014).

Test: label from the status in PepcDB records

MSKPHALRGVLANLISESQSPLTPESIIREFRATSDRRLPACDLIKVLVSISEKRPNFAEVTKEISHILQNKDPMYALLVFVERYSECKPVSESSSSTSLSAMGLPHGNKTSDVNSAAGSVPTTLAIASTSTILTTSQNVSGSTRLSLTQSQDFPTSTPVNCKKATESDTTPVVFVRRGPMDRNRGAGKDERNDLSVIKERVLNAVSDQSLSGYRSVTNKTGNSPKSMPNDLVTLTDVPDEYRTHLLWEYYKVDGDKVPRAEIAAMPLLSQESMLLDELLHCLTGIRESLLVPQKPIISAVGLAKYDTDFDIHTHLDRSLTHQVREILPLASYFMGVQKIIAATDGLGQVMNSLNEALQELTHDFYLIIVQAEQELRHNRLTLQKLLYYLQPTMWVMHEVWSSLVIIQLSDSRDAEVLTYLHERIKRLEGNKDAQQLIIGLVRKAAKPYMRMLQMWIQKGVIVDRHREFLVVDNEVIHRDELPEHYSDDYWERRYTLRDEQIPSFLAKYSDKILRTGKYLNVIRQCGKRVMPTQEMNLEFDPTSERHVSVINDAYYFAARMLLDVLLTENDLMGHLQSVKRYLLLNQGDFTMQFMDACEDELTKNVDHVLPMTLENLLGLTLRISSARNDPYKDDLHCELLPYDLVTQMSKIMKKEENWQAQPRLDLSGLECFAFTYEVKWPCSLVLNHISISKYQMLFRQLFYCKHVERQLCKIWKENSIARQFEPQAASLYRAAFTLRQRMMNAIQNLEYYMMIEIIEPNWHIFIEKMKTVENVDNVLRLHQDFLDSCLKNCMLTESSHLNRSIFKLCKICLKYCEFIQITQRYFQDAELRSMVRDSADSSESEQESLHCPQIETPLDPTDTFSERVRRFDLEFTQLLISFLKQINSMAKKNTADCFMNLVHRINFNAFYTDQMDKMCVEDAIG
protein production: failed

MKNLYILIFACLAISAQGQQLLNSDFENWTNHPGSGGYSSYDEADNWASGNAAVNIAPGLTPPTTKTTDAQHGNAAVKLTTQSIFGQIAAGNLFTGKFQLNLSNPVKSVQMGIPYVSRPSAFNVYYKYAPVNGDSCAIYVLLTKYNTSTKKTDTIGRGHFSSTANVSVYTLLHIPVTYTSTAAPDSIAMVFTSSADGGNFRGQVGSSLTVDNFSLEFEELSIATSLAAVSAVLYPNPAQSRVALSNAPSESGTVYFYNVAGKLVSSQKWTGTVSPEFALDNMPAGFYTCKFITSDTAVFSGKLLITE
protein production: failed

GSAYTPLSEDESHRIFELVKEIDTSNQDASKSEKILQQRLDLLHQVRLRYFTPREVARLMSFPENFEFPPETTNRQKYRLLGNSINVKVVGELIKLLTIK
protein production: failed

MASFPPRVNEKEIVRSRTIGELLAPAAPFDKKCGGENWTVAFAPDGSYFAWSQGYRIVKLVPWSQCLKNFLLHGSKNVTNSSCLKLARQNSNGGQKNKPREHIIDCGDIVWSLAFGSSVPEKQSRCVNIEWHRFRFGQDQLLLATGLNNGRIKIWDVYTGKLLLNLVDHIEVVRDLTFAPDGSLLLVSASRDKTLRVWDLKDDGNMVKVLRGHQNWVYSCAFSPDCSMLCSVGASKAVFLWNMDKYTMIRRLEGHHHDVVACDFSPDGALLATASYDTRVYVWDPHIGDTLMEFGHLFPPPTPIFAGGANDRWVRAVSFSHDGLHVASLADDKMVRFWSIGDDCPVQVAPLSNGLCCAFSTDGSVLAAGTHDGSVYFWATPRQVSSLQHLCRMSIRRVMPTQEVQKLPVPSKMLEFLSYRV
protein production: failed

MSLSMPVPEGADAAAKEMALSDMIPYTVHYDDESVITKDDGLVQVIKLDGLYFESLTAEQIKQFERRRNTVLRSIANSDRGVYVHLIRRKVNLYPAGEGGTWFARRFNQAWRERYNKRSFYVNEIYISIVRNRFRQGAPGILDRAFSLVSGSKITKEDLESFEEQAKDVNEAANLVVQTLSGYGARKLRIQRRPEFVLDRVSRADAQVAVERFKMSWQEFQRSHGHHEVYSRDEVLDYLGEDFSEIGGFLHYLVNLEDERVPVTEMQLDRTLAVSYLDFKMLSNMMAVQNLSGTRAGAMLSMAEWPARTPSRMLDEFLKQPVEYIITQSFFFTDRISAEHDMRQERRRIAVNDREGVAEEDKDEITKGLQDLTRGRSVNGLHHLTMLVHVPATTQFADPIENKRQTIADLDGAVGLLKKAFVNLGVKPVREWFAMETFFWAQLPGQAQHFMGRRGKIKSGNFAGFASLHNFAVGKIDGNLWGPAIMPFETESGTAYYFSFHREMEGMVAGHTAFTADTGAGKTTLLAALIAMGDKAYPRVFWFDNREGAKVFMCAMGGQHTTLTVQGSTGWNPMKLPDTPENRAYLVELLTLMRTCYGGKIVPDDIDRFKKAVHENYALAYPDRRLLNVAWCFGQGELAKDMRVWHGANGIEGANWGVFDNEHDNIDLTNCRHYCYEMRQLIKDGTARPELPVVLSYPFHRIEQSMNGEPFILVLEEGQNLVKHAYWREKIDSYIMQIRRKNGLLVFVTPDAKYLYCETDSIQKQTATKIYLPNGEAKRTDLVDVLGLTPAEYEFVRDTPPENRTFLIRRGNESIKAKFDLSDMPEFIPVLSSNDKGVALMEEIIRELETDDPEQWVPVFMERALAKNTHNLKQKGA
protein production: failed

MNGHAFFFAGVRLTALPSGALWWPAERLLCVSDLHLGKAERLARRGGTLLPPYETQATLARLEADLEATGAERVLCLGDSFDDGAAADGLAEPERLWLRRLMTGRDWIWILGNHD
protein production: failed

MAERRVALVMADNDYRLVRPLANPIHDGEAMEAALKKLGFEVILETNRDLRRMRRALDDFREDAKGADVALVYFSGHGVEISGDNRLLPVDADASSVDQLDKTSLPLEEVRDAVAATAKVGLIVLDACRSDPFSASSGDGRGATSLTKDVADKVKPGLGRVGRAENILFAFSAAPGETAADGTGENSPFTTALTKYLATDGLEIRSVLTLVQQEVYDLSRGKQLPYVESGLPKLFFAAAAKEQLPERERLLLAMADVTPEMRGEVEQIASDADMPLAPLYGALISSDASHLSADSLNARLREAADAFVKVRSEMKTLASDDPQVAELRRQAEEQLSLGAFDGARALLAKAADIDNVSRQALKVNFASRTLSEAATRFLSGGAARADLDYTTAIGDFETVLSLYGEAGQTSLSLEQADRQSRTLEELGILYTTVGNVEAAGRAFTALLTNLEQRSRQETDPSVKRDLAISHIKLANIKMVQGDLPTSLEHYEAARDMLQDLTASVPDEKSWLGDLAMANDKIGNVLATQGDVGAAAKAYQQSLSIKRKLVDAQPNSASLLRDLTITYDEIGDLARTAGQLDGAQTAFEESLRIRLVLAENKPDPERQRAVSVSHERIGDVLRERGDAAGALVAYSKSQAIAEELVRHDPNDTDLKRDLSISYAKIGNALNDQENWPAALASYQQALAVARELAADDPGNTDWQRDLSVCLEKVAGVLDAQGDIRSALQNYQDSLAIVDRLTKLDPGNSDWQRDLSITLSEIGMLETRQRHFEGSRKAFEASLGIRQKLAQSDPNNAIWQFDLVQAYINYAYVAKDPKAVLTKALNLTLDLDRTGRLAPRDKPTIKYLRGLLAKLNAGKK
protein production: failed

MMWNLIKNEFIKLRYKRKYIICTIVFALICIGFCAVYVKMQKASTPDAAIQYYKDAKSSLQSKEKNIKDATLKQQYDQQISQLDEQIKQYQQSKNQGNSNWKKQLKNTIDSLKDEKNQAADITENTAKESYNKQIVFYQYLLNHNIKPQDNNSLSTFQLLQSLLKLIGYILIPIIIAIFSADIVSGEYTPPTIKVLLSKPASRAKILASKFIASAISCIAIILLIELITYLITGIAYGFDNPSYPVLVGTKYMNSGIKLTQDSTGLIPILGSSYVIPLWQFLIEMFLFQILFIIGCCSFFLLLSVVLRSSVLSMTLSIMIVIALNIISQISALHVIMPFLFTNYGSPYDILTNSIPSTSGLTFTTAIFGVIYLIIFTILCYGIANYSFKKKDMTV
protein production: failed

ETDKTAISVREIADNTYIVLGTMTLNDFNEYFETDLESDNVDTIAGFYLTGVGTIPSQEEKEHFEVESNGKHLELINDKVKDGRVTKLKILVSE
protein production: failed

MTDQTRTSPLVNRLLKMISLCALGYLLIILAIIIPRGIQSVEQQKQELEEKLALSLSNSAAIALYVNNYDIASEVMDALLLHQEINAVKLASVDGIVFERTTIPSTYKEQNYWSDANRYRLDSPVDGNLIGYLMIHEDHQVIRQQAINQILDQIAVVLIQFLVTFIALIWIVRRLVGKPLTDLSQALSEVRPDHDRKVAVAAEDHHNEIGLVAKSINEFIDASHQALLRERELRQQIERWESYYRTIAEQDTLTGLKNRLGCEKFVLRKQRASTTMVLLLIDLDGFKQVNDTLGHAAGDEVLREIAKRFYALAQTHFSDFVVGRLGGDEFAIYIPLDEFVAESIERFAAQLIESSSEPIGLGQQSAQVGCSIGISHMNSLHIDLEKLLLQADKAMYWVKYRGKHGYHIYRMGEEILPLPSAKELKQDQFR
protein production: failed

MIDEKFLIESNELVESSKIVMVGTNGENGYPNIKAMMRLKHDGLKKFWLSTNTSTRMVERLKKNNKICLYFVDDNKFAGLMLVGTIEILHDRASKEMLWTDGCEIYYPLGIDDPDYTALCFTAEWGNYYRHLKNITFKIDEIYNY
protein production: not failed

MDNITFPSQGSLSSSNQTFDSQSAARNSNAPPEYVNQGLLLWNQTRERWVGKDKPNNPVDHNQGAKLNWNTATYDSLLGSNKLFPQPIPLTEMVDFLVDIWEQEGLYD
protein production: failed

MGISNWQPTMRAACWMSGALVSLLAMAVATRELSAHVSVFQILFFRSACGLLIIVPLVWRAGWRKVATARPGLHVLRNATHFLAQYGWVYGIAFIPMAEVFAIEFTVPVWTALLAAVLLGERLTAARLLAVALGLAGVFVIVRPGSGMIHPAALAVLLGAVAFALAYIMTKMLARTETPLCILFYMTLVQLPLGLAPALANWSSPPPHVWPWILVVGTMGLATHYCLARAMALADATVVVPLDFLRLPLIAVVGAVFYGEAIEPLLFLGAGMILAGNLYSILAERRRPAMPRAARDGSH
protein production: failed

MLKKLFAPPQKRERLSAEEIKHKYPRYRVQVLISIFVGYMGYYFVRNTTSILSGILNMSATEIGIITCASYIAYGLSKFISGLISDESNSKIFLPVGLFLTGLVNVLIGVIPSVITSIWLFTIMYLINGWLQGMGYPPGARTLVYWYDNKERIKYATIWNLSHNFGGAIAPILTGVGLALAGNDSLNQARAAYWFPGVVACLLAVLVYFLQEDTPESIGLPPIEEYHKEQYTNVVDSSDILEEPEVLGMGEIIKKYILPNTKLMWASLYSIFVYILRYGIVSWTPKFLATSVQDGGKGITATAGMGGFSLFEIGGIIGMLTAGYLSAKVFKNSKPLTNVAFLVVAILLLAAYWFIPAGPQYMALDFIILLGLGASIYGPVMMVGLYAMELVPKAAAGAASGLTGTFSYVGGATIATLAIGIIIDHFGWGVAFIIFGISGFAAIVCTLLSRDKSLEYW
protein production: failed

MDGSNVTSFVVEEPTNISTGRNASVGNAHRQIPIVHWVIMSISPVGFVENGILLWFLCFRMRRNPFTVYITHLSIADISLLFCIFILSIDYALDYELSSGHYYTIVTLSVTFLFGYNTGLYLLTAISVERCLSVLYPIWYRCHRPKYQSALVCALLWALSCLVTTMEYVMCIDREEESHSRNDCRAVIIFIAILSFLVFTPLMLVSSTILVVKIRKNTWASHSSKLYIVIMVTIIIFLIFAMPMRLLYLLYYEYWSTFGNLHHISLLFSTINSSANPFIYFFVGSSKKKRFKESLKVVLTRAFKDEMQPRRQKDNCNTVTVETVV
protein production: failed

MQGQEDEVVLVEGPTLPETPRLFPLKIRCRADLVRLPLRMSEPLQSVVDHMATHLGVSPSRILLLFGETELSPTATPRTLKLGVADIIDCVVLTSS
protein production: not failed

MADNYVIWFENLRMTDVERVGGKNASLGEMISQLTEKGVRVPGGFATTAEAYRAFLAHNGLSERISAALAKLDVEDVAELARVGKEIRQWILDTPFPEQLDAEIEAAWNKMVADAGGADISVAVRSSATAEDLPDASFAGQQETFLNINGLDNVKEAMHHVFASLYNDRAISYRVHKGFEHDIVALSAGVQRMVRSDSGASGVMFTLDTESGYDQVVFVTSSYGLGENVVQGAVNPDEFYVFKPTLKAGKPAILRKTMGSKHIKMIFTDKAEAGKSVTNVDVPEEDRNRFSITDEEITELAHYALTIEKHYGRPMDIEWGRDGLDGKLYILQARPETVKSQEEGNRNLRRFAINGDKTVLCEGRAIGQKVGQGKVRLIKDASEMDSVEAGDVLVTDMTDPDWEPV
protein production: not failed
